The values that follow come from publication PMC5356071.

In this test the target is Zika virus envelope (E) glycoprotein, strain H/PF/2013 (French Polynesia), on mature infectious virions (Zika virus strain H/PF/2013, French Polynesia). The test is described as follows: cryo-EM structure; mature ZIKV H/PF/2013 particles incubated with ZIKV-117 Fab at 4 °C for 2–3 h, flash-frozen on lacey carbon grids; icosahedral reconstruction at 6.2 Å; E dimer (PDB 5IRE) and Fab domains (ZV-67, PDB 5KVG) fitted; occupancies by EMfit.

B1: ZIKV-117 Fab (Fab fragment of the human monoclonal antibody ZIKV-117) (Fab, V domains shown)
VH: QVQLVESGGGVVRPGGSLRLSCAASGFTFKNYGIHWVRQAPGKGPEWVAFVRYDGNNKYYADSVKGRFTISRDNAKNTLSLQMNSLRVEDTAVYFCARDPETFGGFDYWGQGTLVTVSS
VL: ETVMTQSPATLSVSPGERGTLSCRASESVSSNLAWYQQKPGKAPRLLIYGASTRATGIPDRFSGSGSGTEFTLTISSLQSEDFAVYYCQQYYYSPRTFGQGTKVEVK
For B1, the Fabs bound per virion at saturation (Fabs per virion (180 sites)) stood at 60, the Fabs per virion at the 2f sites (Fabs per virion) was 21, the Fabs per virion at the 3f sites (Fabs per virion) stood at 35 and the occupancy at the 2f site (average Fab density relative to E protein density) stood at 35%. Further, the occupancy at the 3f site (average Fab density relative to E protein density) amounted to 58%.
